The experiment has as its target AC133-positive and CD3-positive cells (target of the printed Kd not stated). Nature of the experiment: flow cytometry on cells, MFI against antibody concentration, detected with anti-c-Myc mAb and PE anti-mouse F(ab')2; target cell line for this Kd not stated.

This passage reports Kd results from patent publication EP2769989A1.

B1: AC133xCD3-diabody (bispecific single-chain antibody, VHAC133-G4S Linker-VLCD3-(G4S)3 Linker-VHCD3-G4S Linker-VLAC133) (bispecific antibody)
chain: QVQLQQSGAELVRPGASVKLSCKASGYTFSDFEMHWVKQTPVHGLEWIGDIDPGTGDTAYNLKFKGKATLTTDKSSSTAYMELRSLTSEDSAVYYCTLGAFVYWGQGTLVTVSGGGGSDIQMTQSPSSLSASVGDRVTITCRASQDIRNYLNWYQQKPGKAPKLLIYYTSRLESGVPSRFSGSGSGTDYTLTISSLQPEDFATYYCQQGNTLPWTFGQGTKVEIKGGGGSGGGGSGGGGSEVQLVESGGGLVQPGGSLRLSCAASGYSFTGYTMNWVRQAPGKGLEWVALINPYKGVSTYNQKFKDRFTISVDKSKNTAYLQMNSLRAEDTAVYYCARSGYYGDSDWYFDVWGQGTLVTVSSGGGGSDVVVTQTPLSLPVSFGDQVSISCRSSQSLANSYGNTYLSWYLHKPGQSPQLLIYGISNRFSGVPDRFSGSGSGTDFTLKISTIKPEDLGMYYCLQGTHQPYTFGGGTKLEIKRADAAA
In turn, B1 showed a Kd of 6.4 nM.
